Consider ten variants from IntAct's records for PubMed 17350572.

The labels stand for the following.
B1: Programmed cell death 6-interacting protein (Homo sapiens), Q8WUM4 (parent)
chain: MATFISVQLKKTSEVDLAKPLVKFIQQTYPSGGEEQAQYCRAAEELSKLRRAAVGRPLDKHEGALETLLRYYDQICSIEPKFPFSENQICLTFTWKDAFDKGSLFGGSVKLALASLGYEKSCVLFNCAALASQIAAEQNLDNDEGLKIAAKHYQFASGAFLHIKETVLSALSREPTVDISPDTVGTLSLIMLAQAQEVFFLKATRDKMKDAIIAKLANQAADYFGDAFKQCQYKDTLPKEVFPVLAAKHCIMQANAEYHQSILAKQQKKFGEEIARLQHAAELIKTVASRYDEYVNVKDFSDKINRALAAAKKDNDFIYHDRVPDLKDLDPIGKATLVKSTPVNVPISQKFTDLFEKMVPVSVQQSLAAYNQRKADLVNRSIAQMREATTLANGVLASLNLPAAIEDVSGDTVPQSILTKSRSVIEQGGIQTVDQLIKELPELLQRNREILDESLRLLDEEEATDNDLRAKFKERWQRTPSNELYKPLRAEGTNFRTVLDKAVQADGQVKECYQSHRDTIVLLCKPEPELNAAIPSANPAKTMQGSEVVNVLKSLLSNLDEVKKEREGLENDLKSVNFDMTSKFLTALAQDGVINEEALSVTELDRVYGGLTTKVQESLKKQEGLLKNIQVSHQEFSKMKQSNNEANLREEVLKNLATAYDNFVELVANLKEGTKFYNELTEILVRFQNKCSDIVFARKTERDELLKDLQQSIAREPSAPSIPTPAYQSSPAGGHAPTPPTPAPRTMPPTKPQPPARPPPPVLPANRAPSATAPSPVGAGTAAPAPSQTPGSAPPPQAQGPPYPTYPGYPGYCQMPMPMGYNPYAYGQYNMPYPPVYHQSPGQAPYPGPQQPSYPFPQPPQQSYYPQQ
partner: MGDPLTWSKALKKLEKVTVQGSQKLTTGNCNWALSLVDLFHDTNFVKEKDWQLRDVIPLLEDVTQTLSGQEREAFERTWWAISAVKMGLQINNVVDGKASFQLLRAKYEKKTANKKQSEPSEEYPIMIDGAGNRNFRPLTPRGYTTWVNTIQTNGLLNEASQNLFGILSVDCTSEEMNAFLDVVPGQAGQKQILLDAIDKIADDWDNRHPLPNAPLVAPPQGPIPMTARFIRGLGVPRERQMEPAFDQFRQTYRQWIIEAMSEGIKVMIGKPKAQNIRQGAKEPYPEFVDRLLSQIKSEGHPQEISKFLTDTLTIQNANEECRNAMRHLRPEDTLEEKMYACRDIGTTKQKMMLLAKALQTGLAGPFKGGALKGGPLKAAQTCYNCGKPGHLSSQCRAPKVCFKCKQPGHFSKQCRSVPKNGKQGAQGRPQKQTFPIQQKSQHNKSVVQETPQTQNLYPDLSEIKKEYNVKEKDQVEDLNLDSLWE
B2: Programmed cell death 6-interacting protein (Homo sapiens), Q8WUM4 (parent)
chain: B1 chain
partner: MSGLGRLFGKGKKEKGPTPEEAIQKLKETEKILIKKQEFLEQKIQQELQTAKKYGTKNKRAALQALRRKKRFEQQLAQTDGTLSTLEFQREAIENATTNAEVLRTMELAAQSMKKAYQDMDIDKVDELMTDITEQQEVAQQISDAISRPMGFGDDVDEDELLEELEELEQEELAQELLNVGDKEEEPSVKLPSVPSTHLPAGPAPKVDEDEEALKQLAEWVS
B3: Gag polyprotein (Equine infectious anemia virus (isolate 1369) (EIAV)), P69730 (parent)
chain: B1 partner
B4: Programmed cell death 6-interacting protein (Homo sapiens), Q8WUM4 (parent)
chain: B1 chain

The variants in the first test derive from B1. As to conditions: with gag_eiav9 gag.
Take V498D: the “effect of a mutation on the interaction” value is listed as “decreasing interaction”.
As to F676D, the “effect of a mutation on the interaction” value is given as “disrupting interaction”.
The same measure, in the same setting: the result for I683D reads “decreasing interaction”.

In a further test the parent is B2. As to conditions: with chm4a_human CHMP4A.
For the variant I212D, the “effect of a mutation on the interaction” value is recorded as “disrupting interaction”.

A further test covers variants of B3. As to conditions: with pdc6i_human PDCD6IP.
With MGDPLTWSKALKKLEKVTVQGSQKLTTGNCNWALSLVDLFHDTNFVKEKDWQLRDVIPLLEDVTQTLSGQEREAFERTWWAISAVKMGLQINNVVDGKASFQLLRAKYEKKTANKKQSEPSEEYPIMIDGAGNRNFRPLTPRGYTTWVNTIQTNGLLNEASQNLFGILSVDCTSEEMNAFLDVVPGQAGQKQILLDAIDKIADDWDNRHPLPNAPLVAPPQGPIPMTARFIRGLGVPRERQMEPAFDQFRQTYRQWIIEAMSEGIKVMIGKPKAQNIRQGAKEPYPEFVDRLLSQIKSEGHPQEISKFLTDTLTIQNANEECRNAMRHLRPEDTLEEKMYACRDIGTTKQKMMLLAKALQTGLAGPFKGGALKGGPLKAAQTCYNCGKPGHLSSQCRAPKVCFKCKQPGHFSKQCRSVPKNGKQGAQGRPQKQTFPIQQKSQHNKSVVQETPQTQNLSRDLSEIKKEYNVKEKDQVEDLNLDSLWE [Y458S;P459R], the “effect of a mutation on the interaction” value is “decreasing interaction”.

In the next test the parent is B4. As to conditions: with gag_hv1b1 gag.
With F676D, the “effect of a mutation on the interaction” value is reported as “disrupting interaction”.
In the case of V498D, the “effect of a mutation on the interaction” value is given as “disrupting interaction”.
For the variant I683D, the “effect of a mutation on the interaction” value is listed as “decreasing interaction”.

In another test the parent is B4. As to conditions: with sh3g2_human SH3GL2, Q99962.
Sequence of sh3g2_human SH3GL2, Q99962 (Q99962 whole entry): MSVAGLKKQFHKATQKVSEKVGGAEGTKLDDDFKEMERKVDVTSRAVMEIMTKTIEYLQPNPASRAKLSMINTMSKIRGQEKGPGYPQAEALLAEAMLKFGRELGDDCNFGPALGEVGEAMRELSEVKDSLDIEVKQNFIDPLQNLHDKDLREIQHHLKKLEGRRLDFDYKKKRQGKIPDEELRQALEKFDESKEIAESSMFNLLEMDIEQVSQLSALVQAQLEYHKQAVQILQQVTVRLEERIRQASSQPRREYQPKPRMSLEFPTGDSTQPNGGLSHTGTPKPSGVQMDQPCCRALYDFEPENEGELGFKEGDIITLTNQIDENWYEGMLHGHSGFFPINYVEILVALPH
Turning to R757A;P758A, the “effect of a mutation on the interaction” value was “decreasing interaction”.

Variants of B4 are the subject of another test. As to conditions: with ts101_human TSG101, Q99816.
Sequence of ts101_human TSG101, Q99816 (Q99816 whole entry): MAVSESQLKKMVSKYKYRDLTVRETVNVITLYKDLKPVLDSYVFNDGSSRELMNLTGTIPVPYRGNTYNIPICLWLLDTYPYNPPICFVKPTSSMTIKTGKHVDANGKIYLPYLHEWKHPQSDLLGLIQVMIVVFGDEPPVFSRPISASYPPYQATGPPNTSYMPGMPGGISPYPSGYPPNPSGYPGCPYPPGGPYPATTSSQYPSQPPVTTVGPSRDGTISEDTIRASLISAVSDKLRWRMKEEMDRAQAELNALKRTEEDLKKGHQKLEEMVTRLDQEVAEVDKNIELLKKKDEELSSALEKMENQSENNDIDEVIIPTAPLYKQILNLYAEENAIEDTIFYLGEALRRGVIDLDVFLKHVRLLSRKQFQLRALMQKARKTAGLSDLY
P720L: the “effect of a mutation on the interaction” value was “disrupting interaction”.
